Biological target: UBE2R1 E108A (human) (UniProt P49427)
Sequence (P49427 whole entry E108A): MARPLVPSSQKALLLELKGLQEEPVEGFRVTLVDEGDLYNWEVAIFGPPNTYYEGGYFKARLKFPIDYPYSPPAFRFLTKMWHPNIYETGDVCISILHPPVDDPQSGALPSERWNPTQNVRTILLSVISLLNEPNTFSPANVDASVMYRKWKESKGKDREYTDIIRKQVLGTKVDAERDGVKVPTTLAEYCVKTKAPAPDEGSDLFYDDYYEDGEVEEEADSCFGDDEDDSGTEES

- Km of unanchored D77 acceptor ubiquitin for UBE2R1 in di-ubiquitin synthesis (K48R donor ubiquitin, neddylated CUL2–RBX1 WT); saturation not reached, top concentration given: > 800 µM
Substance: D77 acceptor ubiquitin R54D (from UniProt P0CG48 1-76) (natural protein)
